± gives the uncertainty stated by the source.
Assay: protein stability index of a GFP-peptide fusion (yeast GPS) (PSI 1-4); higher = more stable; sorted into four equal gates, so the index is relative within each strain
Method in brief: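 For each peptide, the protein stability index sums the read frequency in every gate after multiplying it by the gate number. Read frequencies came from plasmids that were PCR-amplified from each gate and Illumina-sequenced, with reads assigned to strains by barcodes. The gates were four equal bins of GFP/Cherry fluorescence ratio applied to mid-log yeast in leucine-free medium carrying a pooled library of tiled 17-residue yeast protein peptides fused downstream of GFP on a Cherry-expressing plasmid.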

Sequence | protein stability index (pdr5∆) | protein stability index (san1∆) | protein stability index (ubr1∆) | protein stability index (doa10∆)
FLIIVPKSTLDNWRREF [ISW2] | 2.37 ± 0.27 | 1.94 ± 0.16 | 1.99 ± 0.22 | –
DMLKYKEDEPVVARRSN [ITC1] | 2.42 ± 0.098 | 1.84 ± 0.084 | 1.76 ± 0.063 | 2.96 ± 0.1
NKDSIEECGRTIHRSFT [CSN12] | 3.13 ± 0.066 | 3.28 ± 0.043 | 3.12 ± 0.046 | 3.21 ± 0.067
MATLEELDAQTLPGDDE [RPT5] | 3.28 ± 0.15 | 3.35 ± 0.13 | 3.49 ± 0.13 | 3.31 ± 0.12
ISKLFLRGDSVIVVLKT [SMD2] | 2.89 ± 0.2 | – | – | 2.87 ± 0.16
VTVHSLTGEATANALPL [RPL4A] | 2.76 ± 0.053 | 2.17 ± 0.052 | 2.86 ± 0.041 | 2.75 ± 0.069
GLGVNRRILAAAAAAAA [SSN3] | 1.52 ± 0.083 | 1.08 ± 0.2 | 1.95 ± 0.069 | 1.44 ± 0.07
TESITHDSSNGLFQVLH [NUT1] | 3.22 ± 0.061 | 2.99 ± 0.058 | 3.17 ± 0.041 | 3.12 ± 0.073
HILAVKKMMNTLVHTRV [SSN2] | 2.03 ± 0.062 | 2.06 ± 0.086 | 1.34 ± 0.059 | 2.25 ± 0.056
FDRHCNMVLENVKELWT [SMD2] | 2.38 ± 0.088 | 1.84 ± 0.1 | 2.03 ± 0.1 | 2.37 ± 0.081
GRIPLHWSVSFQAHEIT [NAS6] | 2.84 ± 0.056 | 2.48 ± 0.073 | 2.69 ± 0.037 | 2.87 ± 0.057
VFKLSTNLISKISLLRP [SWP82] | 2.43 ± 0.1 | 2.13 ± 0.18 | 2.87 ± 0.088 | 2.11 ± 0.099
LGLGIAFAGSKNDEVLG [RPN1] | 2.94 ± 0.15 | 2.81 ± 0.26 | 3.04 ± 0.14 | 3.09 ± 0.3
LRDHALSLTAFTKNEEK [ITC1] | 1.76 ± 0.047 | 1.38 ± 0.076 | 1.86 ± 0.046 | 1.42 ± 0.042
NHMLIDSLNQLEIRNKI [RGR1] | 3.04 ± 0.069 | 2.92 ± 0.079 | 3.08 ± 0.076 | 2.97 ± 0.097
TKGDSTPVQPDLSVTPQ [YAR002W/NUP60] | 3.16 ± 0.036 | 2.984 ± 0.028 | 3.098 ± 0.024 | 3.22 ± 0.036
GAGIERELARIKKYASV [RPL3] | 3.46 ± 0.17 | – | – | 3.49 ± 0.21
SAAKASQSRSAKAGLTF [HTA1] | 2.96 ± 0.084 | 2.98 ± 0.042 | 3.05 ± 0.034 | 3.06 ± 0.081
KEDEPVVARRSNSANVS [ITC1] | 3.06 ± 0.068 | 2.57 ± 0.048 | 2.4 ± 0.05 | 3.07 ± 0.064
QNIMTLPDGKNGNLEEE [MED6] | 3.23 ± 0.11 | 3.37 ± 0.056 | 3.31 ± 0.091 | 3.37 ± 0.064
IITQYVFESLEINNLIQ [ARP9] | 2.93 ± 0.081 | 2.8 ± 0.12 | 2.96 ± 0.1 | 3.2 ± 0.098
IPTNPVDNENNKPAIKE [SWI3] | 3.1 ± 0.083 | 2.89 ± 0.11 | 3.21 ± 0.068 | 2.95 ± 0.074
LAYRNYWTQYLGLFIHK [YJL039C/NUP192] | 1.56 ± 0.037 | 1.9 ± 0.055 | 2.02 ± 0.039 | 1.94 ± 0.057
FLDYTTDNVSMYPSPTG [PRP8] | 2.85 ± 0.06 | 2.7 ± 0.06 | 2.95 ± 0.057 | 2.85 ± 0.056
NSEYLKRRVTNLEFNYT [SMC2] | 2.27 ± 0.1 | 2.5 ± 0.091 | 2.49 ± 0.084 | 2.38 ± 0.066
LDDPEAVSKDPLLTKRK [DIS3] | 3.44 ± 0.1 | 3.34 ± 0.094 | 3.1 ± 0.059 | 2.9 ± 0.11

Sequence | protein stability index (pdr5∆) | protein stability index (san1∆) | protein stability index (ubr1∆) | protein stability index (doa10∆)
KERYTVEDELTESIALS [RRI1] | 3.29 ± 0.052 | 3.11 ± 0.075 | 3.23 ± 0.058 | 3.1 ± 0.065
KKVASANATAAESDVAK [RPL16A] | 3.04 ± 0.065 | 3.1 ± 0.036 | 3.02 ± 0.038 | 3.08 ± 0.054
LESFQAVYNKLTGKQIV [RPS7A] | 1.32 ± 0.044 | 1.28 ± 0.098 | 1.53 ± 0.052 | 1.68 ± 0.055
HLLSINYGEKEERKRWA [PCI8] | 3.13 ± 0.096 | 3.41 ± 0.18 | 3.4 ± 0.095 | 3.17 ± 0.11
SKQNGSKFHFSWNESED [PRP28] | 2.94 ± 0.064 | 2.72 ± 0.072 | 2.79 ± 0.046 | 2.73 ± 0.061
TMADAVRELGILCIFEG [SEC65] | 2.05 ± 0.071 | 2.62 ± 0.063 | 1.45 ± 0.062 | 2.52 ± 0.06
QTQREKAPLQPNSERET [IRR1] | 3.2 ± 0.059 | 3.06 ± 0.039 | 3.07 ± 0.054 | 3.1 ± 0.061
NLQAKPLVGKPKTELTK [YAR002W/NUP60] | 2.52 ± 0.067 | 2.7 ± 0.088 | 2.39 ± 0.1 | 2.72 ± 0.098
MVEWLESRSFSPIPFPP [PRP8] | 2.83 ± 0.17 | 3.17 ± 0.13 | 2.9 ± 0.11 | 2.52 ± 0.13
LEAKRKVSSAEYYAKKR [RPL16A] | 3.3 ± 0.11 | 2.86 ± 0.11 | 3.35 ± 0.09 | 3.06 ± 0.14
EYSDNFPVSLSQPSKKS [SIR4] | 3.05 ± 0.046 | 2.98 ± 0.04 | 3.1 ± 0.031 | 3.08 ± 0.045
RMLSSILDINVSSSKNK [SWP82] | 2.9 ± 0.051 | 2.49 ± 0.059 | 2.61 ± 0.032 | 2.71 ± 0.051
AASVIGMLVALGRLSVR [RPC82] | 1.32 ± 0.07 | 1.11 ± 0.23 | 1.24 ± 0.097 | –
AFADRLGQYVQAHTLYN [PRE10] | 1.95 ± 0.066 | 1.74 ± 0.12 | 2.03 ± 0.11 | 2.22 ± 0.085
IPKQLLDDEKIFSQTTN [YJL039C/NUP192] | 2.77 ± 0.051 | 2.69 ± 0.059 | 3.1 ± 0.052 | 2.55 ± 0.077
GTGKTMLVKAVANSTKA [RPT3] | 1.47 ± 0.1 | 2.02 ± 0.096 | 1.31 ± 0.13 | 2.64 ± 0.19
SKGYVKTQFSWQYYYYT [RPS10A] | 2.54 ± 0.06 | 2.76 ± 0.05 | 2.92 ± 0.056 | 2.81 ± 0.077
ITARSAFVEFGASVIAG [SWP82] | 2.53 ± 0.085 | 1.86 ± 0.11 | 2.21 ± 0.054 | 1.93 ± 0.11
FYQQVHKKDRLQYLPLY [SIR4] | 1.77 ± 0.058 | 1.75 ± 0.11 | 1.67 ± 0.048 | 1.64 ± 0.063
AGNSQITSGGFLLKAYI [SRB5] | 2.53 ± 0.097 | 2.24 ± 0.17 | 2.92 ± 0.11 | 2.11 ± 0.1
FQAVIQKSINHPPDFKR [SNF2] | 2.98 ± 0.19 | 3.02 ± 0.14 | 3.19 ± 0.11 | 2.8 ± 0.12
QQTGLVDAITRCYQPFE [SNU114] | 2.76 ± 0.056 | 3.04 ± 0.041 | 2.98 ± 0.05 | 2.53 ± 0.069
NDKLIVDNDNWVYKTKG [RPN1] | 2.77 ± 0.18 | 3.18 ± 0.28 | – | 2.81 ± 0.14
ILGELKRVKSYMDKAKQ [LRP1] | 2.35 ± 0.082 | 1.89 ± 0.12 | 2.36 ± 0.065 | 2.23 ± 0.079
VVEEFTPVVLATPIPEE [RPS5] | 2.27 ± 0.069 | 2.13 ± 0.056 | 2.17 ± 0.049 | 2.69 ± 0.13
RELLNPRYTYHTIFSDV [YML031W/NDC1] | 3.05 ± 0.052 | 2.71 ± 0.045 | 2.93 ± 0.058 | 3.01 ± 0.053

— the supplement of paper PMC9732359
